Biological target: T1, soluble serum stimulated 2 (sST2) (UniProt Q01638-2 19-328)
T1 construct: ST2 (IL1RL1), truncated soluble isoform that lacks the transmembrane and intracellular domains of ST2L; also called soluble ST2; IL1RL1; source: recombinant; expression and purification described previously [21]; receptor glycoproteins re-monomerized by Superdex 200 SEC
T1 sequence (looked up): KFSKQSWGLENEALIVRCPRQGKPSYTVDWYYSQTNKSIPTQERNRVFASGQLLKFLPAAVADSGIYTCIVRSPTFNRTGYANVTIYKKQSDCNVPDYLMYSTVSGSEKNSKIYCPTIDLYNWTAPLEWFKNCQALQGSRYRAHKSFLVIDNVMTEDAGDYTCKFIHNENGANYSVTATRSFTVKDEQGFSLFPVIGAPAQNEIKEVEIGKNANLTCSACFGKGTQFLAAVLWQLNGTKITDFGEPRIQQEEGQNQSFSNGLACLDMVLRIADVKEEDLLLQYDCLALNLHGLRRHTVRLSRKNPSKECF
Assay: KinExA; kinetic exclusion assay in free solution; IL-33^red titrated into fixed sST2 (30 pM and 2.0 pM); 1:1 binding model fitted to two datasets; association rate also by KinExA
Conditions: both partners purified

B1: reduced interleukin-33 (IL-33^red), residues 112–270 (ligand, human, UniProt O95760 112-270, looked up)
chain: SITGISPITEYLASLSTYNDQSITFALEDESYEIYVEDLKKDEKKDKVLLSYYESQHPSNESGDGVDGKMLMVTLSPTKDFWLHANNKEHSVELHKCEKPLPDQAFFVLHNMHSNCVSFECKTDPGVFIGVKDNHLALIKVDSSENLCTENILFKLSET
notes: Interleukin-33, human, residues 112-270, reduced form (free cysteines); also called wild-type IL-33; source: recombinant; expression and purification described previously [21]
Kd: 0.09 pM | kon: 1.5e+08 M⁻¹ s⁻¹

From doi:10.1101/2023.02.28.527262, “Tozorakimab (MEDI3506): a dual-pharmacology anti-IL-33 antibody that inhibits IL-33 signalling via ST2 and RAGE/EGFR to reduce inflammation and epithelial dysfunction” (bioRxiv, 2023)
